The values that follow come from patent US20260159603A1 (BEAM THERAPEUTICS, published 2026).

Sequences and labels used below:
T1: huCD5-BTN (human, UniProt P06127 25-372, limits assumed, biotinylated (BTN))
T1 construct: Loaded onto streptavidin biosensors; also called human CD5
T1 sequence (looked up): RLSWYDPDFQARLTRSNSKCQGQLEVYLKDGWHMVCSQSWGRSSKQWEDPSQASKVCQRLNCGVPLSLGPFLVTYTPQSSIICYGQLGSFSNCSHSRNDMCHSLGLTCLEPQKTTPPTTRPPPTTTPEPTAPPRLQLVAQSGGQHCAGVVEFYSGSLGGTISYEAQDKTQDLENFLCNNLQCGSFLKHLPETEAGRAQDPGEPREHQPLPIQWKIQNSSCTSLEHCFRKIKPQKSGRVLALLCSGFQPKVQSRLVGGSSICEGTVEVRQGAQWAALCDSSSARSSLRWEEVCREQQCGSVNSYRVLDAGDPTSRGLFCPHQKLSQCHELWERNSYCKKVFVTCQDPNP

T2: biotinylated human CD5-HIS (human, UniProt P06127 25-372, biotinylated)
T2 construct: Loaded onto streptavidin Octet pins; also called huCD5; SA-human CD5; not shown: HIS tag
T2 sequence (looked up): T1 sequence (looked up)

T3: human CD5 on transfected HEK293T cells (human, UniProt P06127 25-495)
T3 construct: whole, on cells; also called huCD5; Human CD5 Cells
T3 sequence (looked up): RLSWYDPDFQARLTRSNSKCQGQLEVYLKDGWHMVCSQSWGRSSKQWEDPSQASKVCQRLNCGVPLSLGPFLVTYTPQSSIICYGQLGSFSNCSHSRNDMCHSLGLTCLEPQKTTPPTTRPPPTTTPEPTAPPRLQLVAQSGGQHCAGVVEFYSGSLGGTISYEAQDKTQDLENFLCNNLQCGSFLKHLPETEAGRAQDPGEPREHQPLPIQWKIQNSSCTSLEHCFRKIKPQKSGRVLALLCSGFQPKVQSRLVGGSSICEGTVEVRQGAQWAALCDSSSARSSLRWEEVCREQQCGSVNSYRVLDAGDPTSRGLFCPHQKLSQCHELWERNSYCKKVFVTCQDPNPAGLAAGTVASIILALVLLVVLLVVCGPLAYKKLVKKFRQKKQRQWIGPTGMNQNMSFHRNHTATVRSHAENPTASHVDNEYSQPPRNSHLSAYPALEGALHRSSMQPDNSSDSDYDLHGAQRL

B1: ABTx326 VHH-Fc (Fc fusion)
chain: QVQLVESGGGLVQPGGSLRLSCAASGRTFINYAAGWFRQAPGKEREFVARISRSGGRTDYADSVKGRFTISRDNAKSTVYLQMNSLRPEDTAVYYCAEATVWEFTDGADQYDYWGQGTQVTVSS
notes: VHH as Fc fusion protein; order of the parts and the Fc are not described; also called anti-CD5 VHH-Fc; not shown: Fc (detected with anti-Human Fc)
B2: ABTx330 VHH-Fc (Fc fusion)
chain: EVQLVESGGGLVQPGGSLRLSCAASGFPFSSSFMSWVRQAPGKGLEWVSTIYSDGSTYYADSVKGRFTISRDNAKKTAYLQMNSLKAEDTAVYYCATVTGSIRGQGTQVTVSS
notes: as for B1
B3: ABTx323 VHH-Fc (Fc fusion)
chain: QVQLQESGGGLVQAGGSLRLSCATSGITSSINVIGWYRQAPGKQRELVALVNSGGQTHYADSVKGRFTISRDNAKNTVFLQMNSLKPEDTAEYYCHGRYGIDNYWGEGTQVTVSS
notes: as for B1
B4: ABTx322 VHH-Fc (Fc fusion)
chain: QLQLVESGGGLVQPGGSLRLSCAASGSDFLVDATTWFRQAPGNQREFVAIMDIGGVTEYADSVKGRFTISRDHTKNTVYLQMNSLKVEDTAVYYCNTRGLWGQGTLVTVSS
notes: as for B1
B5: ABTx319 VHH-Fc (Fc fusion)
chain: QVQLVESGGGLVQPGGSLRLSCAASGFTFSMYSMSWVRQAPGKRLEWVSSISTGARDTAYADSVKGRFTISRDNADNTLYLHMNNLKPEDTAVYYCANGDLRYGPDGYDYRGQGTQVTVSS
notes: as for B1
B6: ABTx320 VHH-Fc (Fc fusion)
chain: QVQLVESGGGLVQAGGSLRLSCAASGPAFSSSGMGWFRQAPGKAREFVASMDWTGGSTYYGDSVKGRFTVSRDNAKMTVHLQMNSLRPEDTAVYYCARGTSGVAAVNLRGFFSWGPGTQVTVSS
notes: as for B1
B7: ABTx321 VHH-Fc (Fc fusion)
chain: QLQLVESGGGLVQPGESLRLSCVVSGDIFSFVGWGWYRQAPGKQREVVAQISTGGLTNYADSVKGRFAISRDNAKRTVYLQMNSLKFEDTAVYYCNVPGHPWGQGTQVTVSS
notes: as for B1
B8: ABTx328 VHH-Fc (Fc fusion)
chain: B7 chain with L2V, V32I, V47L, S52N, N58D, A68T, V97F, P101S
notes: as for B1
B9: ABTx329 VHH-Fc (Fc fusion)
chain: QLQLVESGGGLVQPGESLRLSCAASGFSFSRVGMNWYRQAPGKERELVASISSDGSRTNYAHFVKGRFTISRDNVKNMVYLQMNSLKLEDTAVYYCNVPGNSWGQGTQVTVSS
notes: as for B1
B10: ABTx317 VHH-Fc (Fc fusion)
chain: QVQLVESGGGLVQAGASLRLSCAASGRTTYNMGWFRHAPGKDREFVAAIDLYGRATRYANSVKGRFTISRDNAKNTVYLQMNSLKPEDTAVYYCAADTSLPLGVLTKSQRMYGAWGQGTQVTVSS
notes: as for B1
B11: ABTx331 VHH-Fc (Fc fusion)
chain: B10 chain with K107E, M111L
notes: as for B1
B12: ABTx327 VHH-Fc (Fc fusion)
chain: QVQLVESGGGLVQPGGSLRLSCVASGGTFSTYGMGWFRQAPGKEREFVAVITGSGVGTQYADSVKDRFTISRENAKNTVYLQMNTLKLEDTAVYYCVSGHRPGWAVIRADAYEYWGQGTQVTVSS
notes: as for B1
B13: ABTx325 VHH-Fc (Fc fusion)
chain: QVQLVESGGGLVQPGGSLRLSCAASGSDASTNNMAWYRQAPGKEREFVALIRTGGSTHVADSMKGRFTISRENAKNTVYLQMNSLKPEDTAVYYCVIWTGSPGALSDYWGQGTQVTVSS
notes: as for B1
B14: ABTx318 VHH-Fc (Fc fusion)
chain: QVQLQESGGGSVQAGGSLRLSCAASGRAFSAYAMGWFRQAPGKEREFVAAINWNGDTALRWNGFATRYADSVKGRFTISRVIAKNTVNLQMNSLKPEDTAVYYCAADTVVSGSYYLAARAEDYEYWGQGTQVTVSS
notes: as for B1
B15: ABTx315 VHH-Fc (Fc fusion)
chain: QVQLVESGGGLVQAGGSLRLSCAASGRTFGTYTMGWFRQAPGREREFVAAISWSAGRTYYADSMKGRFTISRDNAKNTVYLQMNSLKPEDTAVYYCAADPWTSDSDYDRLTMYDYWGQGTQVTVSS
notes: as for B1
B16: ABTx316 VHH-Fc (Fc fusion)
chain: QVQLVESGGGLVQAGGSLRLSCAASGGTVSSYAMGWFRQAPGKEREFVAVISWSGGRTYYADSVKGRFTISRDNAKNTVNLQMNSLKPEDTAVYYCAADPWTSDSDYERLTMYDYWGQGTQVTVSS
notes: as for B1
B17: ABTx324 VHH-Fc (Fc fusion)
chain: QVQLVESGGGLVQPGGSVRLSCATSGSIFSTNVMGWYRQAPGKEREFVALIRGGGSTHYADSVKGRFIISRENAKTTVYLQMNGLKPEDTAVYYCVIWLGSPGAMSDYWGQGTQVTVSS
notes: as for B1
B18: ABTx330 (VHH)
VHH: B2 chain
notes: VHH in periplasmic extract of the phage display clone; also called clone 563; not shown: c-myc tag of the phagemid construct (detected with anti-c-myc 9E10)
B19: ABTx317 (VHH)
VHH: B10 chain
notes: VHH in periplasmic extract of the phage display clone; also called clone 280; not shown: c-myc tag of the phagemid construct (detected with anti-c-myc 9E10)
B20: ABTx331 (VHH)
VHH: B10 chain with K107E, M111L
notes: VHH in periplasmic extract of the phage display clone; also called clone 225; not shown: c-myc tag of the phagemid construct (detected with anti-c-myc 9E10)

Substitutions are numbered along the chain they refer to.

The first assay deals with T1, huCD5-BTN. The assay can be described thus: BLI in tandem, huCD5-BTN saturated with UCHT2 first; competitor UCHT2.
For B1, the response came out at 0.0571 Response Units.

Regarding B2, the response turned out to be 0.367 Response Units.

Turning to B3, the response came to 0.317 Response Units.

In the case of B4, the response is -0.137 Response Units.

As for B5, the response is 1.17 Response Units.

In the case of B6, the response stood at 0.325 Response Units.

The molecule B7 gave a response of 0.0713 Response Units.

Consider B8, for which the response amounted to 0.153 Response Units.

Take B9: the response was found to be 0.24 Response Units.

B10 displayed a response of 1.24 Response Units.

As for B11, the response is 0.232 Response Units.

B12 returned a response of 0.025 Response Units.

For B13, the response is 0.396 Response Units.

Consider B14, for which the response turned out to be 1.15 Response Units.

Take B15: the response was 0.498 Response Units.

Molecule B16 came in with a response of 0.394 Response Units.

In turn, B17 returned a response of 0.663 Response Units.

The target in the next assay is T2, biotinylated human CD5-HIS. As to the kind of experiment: BLI; KD on human CD5 divided by KD on cynomolgus CD5. Background: Biolayer interferometry detects binding as a change in optical thickness at a sensor tip.
In the case of B18, the “Hu/Cyno KD” value was 0.5.

Regarding B19, the “Hu/Cyno KD” value came out at 0.9.

With B20, the “Hu/Cyno KD” value was 0.6.

In the next assay the target is T2, biotinylated human CD5-HIS. As to the kind of experiment: BLI (Octet), biotinylated CD5-HIS on streptavidin pins, periplasmic extract, off-rate.
Take B18: the koff (in general, a measure of how fast the partners let go of each other) amounted to 0.00231 s⁻¹.

B19 had a koff of 0.0131 s⁻¹.

On to B20, for which the off-rate constant (koff) was 0.0145 s⁻¹.

For a further assay, the target named is T4, biotinylated cynomolgus CD5-HIS (cynomolgus).
T4 construct: Loaded onto streptavidin Octet pins; also called CynoCD5; SA-Cyno CD5
The description is as above.
Molecule B18 returned a dissociation rate constant (koff) of 0.0102 s⁻¹.

As for B19, the off-rate (koff) was found to be 0.118 s⁻¹.

The molecule B20 yielded a koff of 0.0557 s⁻¹.

The target of the next assay is T3, human CD5 on transfected HEK293T cells. As to the kind of experiment: flow cytometry, periplasmic extract on transfected HEK293T cells. Background: In flow cytometry, cells or beads pass a laser one at a time.
Take B18: the “percent of cells showing binding” value is 78.6%.

As for B19, the “percent of cells showing binding” value is 82.8%.

B20: the “percent of cells showing binding” value worked out at 89.2%.

In a further assay the target is T5, cynomolgus CD5 on transfected HEK293T cells (cynomolgus (Table 8B); rhesus macaque …).
T5 construct: whole, on cells; also called Cynomolgus CD5 Cells; rhesus macaque (Macaca mulatta) CD5
The description is as above.
In the case of B18, the “percent of cells showing binding” value stood at 72%.

Consider B19, for which the “percent of cells showing binding” value came to 79.5%.

With B20, the “percent of cells showing binding” value worked out at 71.8%.

The next assay deals with T2, biotinylated human CD5-HIS. As to the kind of experiment: BLI (Octet), biotinylated CD5-HIS on streptavidin pins.
As to B18, binding was put at a Kd of 0.65 nM; the koff came to 8.3e-05 s⁻¹; the kon – broadly, a measure of how fast the partners come together – was found to be 130000 M⁻¹ s⁻¹.

With B19, the affinity, expressed as Kd, was 2.1 nM; the off-rate constant (koff) amounted to 0.00015 s⁻¹; the kon was determined as 71000 M⁻¹ s⁻¹.

Turning to B20, the Kd (usually a measure of binding affinity in units of concentration) worked out at 1.3 nM, the koff came to 0.00012 s⁻¹ and the kon came out at 94000 M⁻¹ s⁻¹.

The next assay deals with T4, biotinylated cynomolgus CD5-HIS. The assay is described as above.
The molecule B18 showed a Kd of 1.4 nM, an off-rate constant (koff) of 0.00014 s⁻¹ and a kon of 110000 M⁻¹ s⁻¹.

In turn, B19 gave an equilibrium dissociation constant (Kd) of 2.4 nM, a koff of 0.0002 s⁻¹ and an association rate constant (kon) of 84000 M⁻¹ s⁻¹.

Turning to B20, binding was put at a Kd of 2.2 nM, the off-rate constant (koff) was found to be 0.00016 s⁻¹ and the kon was 71000 M⁻¹ s⁻¹.
